The experiment addresses human MIP-1α (human) (UniProt P10147). The experiment can be described thus: 125I-MIP-1α bound to human monocytic cells, Exp. 1, 200X molar excess M-T1.
Chain of UniProt P10147 (P10147 24-92 limits assumed): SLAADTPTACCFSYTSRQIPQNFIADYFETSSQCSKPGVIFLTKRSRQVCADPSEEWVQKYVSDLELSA

As to myxoma T1 protein (type-2 CBP), the Surface Bound MIP-1α worked out at 978 cpm.

The values are drawn from patent publication EP1034789A1.
